# In patent publication US20060257938A1, “Method of screening for drugs that block ligand binding to a lipid binding protein” (priority 2005, published 2006):
# Numbering of substitutions follows the chain as printed. In names and notes the source's numbering stands.
# B1: L1P2F7: FABP probe, substitutions Y14I L72G Y117V vs SEQ ID NO: 2 (protein, listed as Rattus norvegicus)
# chain: AFDGTWKVDRNENIEKFMEKMGINVVKRKLGAHDNLKLTITQEGNKFTVKESSNFRNIDVVFELGVDFAYSGADGTELTGTWTMEGNKLVGKFKRVDNGKELIAVREISGNELIQTVTYEGVEAKRIFKKE
# modifications: PEPTIDE (1)...(131) wild-type rat intestinal fatty acid binding protein
# B2: L1P11F12: FABP probe, substitutions Y14L L38I vs SEQ ID NO: 2 (protein, listed as Rattus norvegicus)
# chain: B1 chain with I14L, L38I, G72L, V117Y
# modifications: PEPTIDE (1)...(131) wild-type rat intestinal fatty acid binding protein
# B3: L1P1F7: FABP probe, substitutions Y14L L38M Y117F vs SEQ ID NO: 2 (protein, listed as Rattus norvegicus)
# chain: B1 chain with I14L, L38M, G72L, V117F
# modifications: PEPTIDE (1)...(131) wild-type rat intestinal fatty acid binding protein
# B4: L1P17A1: FABP probe, substitutions Y14I L72W vs SEQ ID NO: 2 (protein, listed as Rattus norvegicus)
# chain: B1 chain with G72W, V117Y
# modifications: PEPTIDE (1)...(131) wild-type rat intestinal fatty acid binding protein
# B5: L1P8D4: FABP probe, substitutions Y14M L72M Y117A vs SEQ ID NO: 2 (protein, listed as Rattus norvegicus)
# chain: B1 chain with I14M, G72M, V117A
# modifications: PEPTIDE (1)...(131) wild-type rat intestinal fatty acid binding protein
# B6: L1P17A8: FABP probe, substitutions L38M L72G Y117F vs SEQ ID NO: 2 (protein, listed as Rattus norvegicus)
# chain: B1 chain with I14Y, L38M, V117F
# modifications: PEPTIDE (1)...(131) wild-type rat intestinal fatty acid binding protein
# B7: L1P16G10: FABP probe, substitutions Y14W L72M Y117A vs SEQ ID NO: 2 (protein, listed as Rattus norvegicus)
# chain: B1 chain with I14W, G72M, V117A
# modifications: PEPTIDE (1)...(131) wild-type rat intestinal fatty acid binding protein
# B8: L1P14A9: FABP probe, substitutions Y14L L72G Y117I vs SEQ ID NO: 2 (protein, listed as Rattus norvegicus)
# chain: B1 chain with I14L, V117I
# modifications: PEPTIDE (1)...(131) wild-type rat intestinal fatty acid binding protein
# B9: L1P12G10: FABP probe, substitution Y14I vs SEQ ID NO: 2 (protein, listed as Rattus norvegicus)
# chain: B1 chain with G72L, V117Y
# modifications: PEPTIDE (1)...(131) wild-type rat intestinal fatty acid binding protein
# B10: L1P3D6: FABP probe, substitution Y14L vs SEQ ID NO: 2 (protein, listed as Rattus norvegicus)
# chain: B1 chain with I14L, G72L, V117Y
# modifications: PEPTIDE (1)...(131) wild-type rat intestinal fatty acid binding protein
# B11: L1P1C3: FABP probe, substitutions Y14M L72W vs SEQ ID NO: 2 (protein, listed as Rattus norvegicus)
# chain: B1 chain with I14M, G72W, V117Y
# modifications: PEPTIDE (1)...(131) wild-type rat intestinal fatty acid binding protein
# B12: L1P5A10: FABP probe, substitution Y117A vs SEQ ID NO: 2 (protein, listed as Rattus norvegicus)
# chain: B1 chain with I14Y, G72L, V117A
# modifications: PEPTIDE (1)...(131) wild-type rat intestinal fatty acid binding protein
# B13: L1P7H4: FABP probe, substitutions Y14I L38M L72W vs SEQ ID NO: 2 (protein, listed as Rattus norvegicus)
# chain: B1 chain with L38M, G72W, V117Y
# modifications: PEPTIDE (1)...(131) wild-type rat intestinal fatty acid binding protein
# B14: L1P8H2: FABP probe, substitutions Y14M L38M L72W vs SEQ ID NO: 2 (protein, listed as Rattus norvegicus)
# chain: B1 chain with I14M, L38M, G72W, V117Y
# modifications: PEPTIDE (1)...(131) wild-type rat intestinal fatty acid binding protein
# B15: L1P9G10: FABP probe, substitutions L38I L72G vs SEQ ID NO: 2 (protein, listed as Rattus norvegicus)
# chain: B1 chain with I14Y, L38I, V117Y
# modifications: PEPTIDE (1)...(131) wild-type rat intestinal fatty acid binding protein
# B16: L1P7B11: FABP probe, substitutions Y14I L38I L72V vs SEQ ID NO: 2 (protein, listed as Rattus norvegicus)
# chain: B1 chain with L38I, G72V, V117Y
# modifications: PEPTIDE (1)...(131) wild-type rat intestinal fatty acid binding protein
# Experiment: Probe fluorescence ratio response to linolenic acid relative to ADIFAB2
# Format: binding
# Conditions: Table 4
# Method in brief: (§1)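 Fluorescently labeled rat intestinal FABP variants were read at two emission wavelengths, near the unbound maximum (about 420 to 480 nm) and the FFA-bound maximum (about 495 to 580 nm). R = Fλ1/Fλ2 after subtracting probe-free intensity; ΔR = R+agent − R0, normalized to ADIFAB2 (rI-FABP-L72A).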
row,Molecule,ΔR/DRAΔ2 LNA
1,B1,0.5
2,B2,1.2
3,B3,1.0
4,B4,−0.9
5,B5,2.0
6,B6,0.7
7,B7,1.3
8,B8,0.8
9,B9,1.0
10,B10,0.9
11,B11,−1.0
12,B12,0.7
13,B13,−1.1
14,B14,−1.3
15,B15,0.7
16,B16,0.9

# Experiment: Probe fluorescence ratio response to arachidonic acid relative to ADIFAB2
# Format: binding
# Conditions: Table 4; Arachidonic acid
# Method in brief: as §1
row,Molecule,ΔR/DRAΔ2 AA
1,B1,0.9
2,B2,1.0
3,B3,0.9
4,B4,−0.8
5,B5,1.6
6,B6,1.3
7,B7,0.9
8,B8,0.8
9,B9,0.8
10,B10,0.9
11,B11,−0.9
12,B12,1.5
13,B13,−1.0
14,B14,−1.3
15,B15,1.0
16,B16,0.7

# Experiment: Probe fluorescence ratio response to linoleic acid relative to ADIFAB2
# Format: binding
# Conditions: Table 4
# Method in brief: as §1
row,Molecule,ΔR/DRAΔ2 LA
1,B1,0.6
2,B2,1.1
3,B3,0.9
4,B4,−1.0
5,B5,2.0
6,B6,0.8
7,B7,1.1
8,B8,0.8
9,B9,0.9
10,B10,0.8
11,B11,−1.1
12,B12,1.2
13,B13,−1.3
14,B14,−1.5
15,B15,0.8
16,B16,0.9

# Experiment: Probe fluorescence ratio response to oleic acid relative to ADIFAB2
# Format: binding
# Conditions: Table 4
# Method in brief: as §1
row,Molecule,ΔR/DRAΔ2 OA
1,B1,0.3
2,B2,0.7
3,B3,0.5
4,B4,−1.2
5,B5,1.1
6,B6,0.7
7,B7,0.7
8,B8,0.4
9,B9,0.5
10,B10,0.5
11,B11,−1.3
12,B12,1.1
13,B13,−1.4
14,B14,−1.7
15,B15,0.9
16,B16,0.4

# Experiment: Probe fluorescence ratio response to palmitic acid relative to ADIFAB2
# Format: binding
# Conditions: Table 4
# Method in brief: as §1
row,Molecule,ΔR/DRAΔ2 PA
1,B1,0.1
2,B2,0.7
3,B3,0.5
4,B4,−0.4
5,B5,0.9
6,B6,0.4
7,B7,0.8
8,B8,0.2
9,B9,0.8
10,B10,0.5
11,B11,−0.4
12,B12,0.4
13,B13,−0.6
14,B14,−0.6
15,B15,0.4
16,B16,0.8
